Columns and labels:
human IL-6 (human) [1] = molecular target: human IL-6 (human) (UniProt P05231); experiment: cell-based or functional assay
human IL-6 (human) [2] = molecular target: human IL-6 (human) (UniProt P05231); experiment: 20 pM 125I-IL-6 preincubated with 500 pM mAb B-E8 for 20 hours, chase with 20 nM unlabelled IL-6, Protein G-Sepharose precipitation

Sequence of human IL-6 (human) (P05231 30-212 limits assumed): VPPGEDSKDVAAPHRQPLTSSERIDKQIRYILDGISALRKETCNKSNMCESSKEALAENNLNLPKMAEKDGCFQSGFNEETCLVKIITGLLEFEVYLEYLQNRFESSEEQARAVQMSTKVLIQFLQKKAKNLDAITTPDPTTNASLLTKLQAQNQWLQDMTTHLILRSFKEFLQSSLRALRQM

inhibition of IL-6-dependent proliferation of XG-1 cells (MTT) (fold molar excess over IL-6) (human IL-6 (human) [1]): 10 | percent of initial 125I-IL-6 counts still bound after three days (human IL-6 (human) [2]): < 5%
B1: anti-IL-6 monoclonal neutralizing antibody B-E8 (antibody, from another filing, V domains shown)
VH: QVTLKESGPGILKPSQTLSLTCSFSGFSLSTSGMGVGWIRQPSGKGLEWLAHIWWDDDKYYNPSLKSQLTISKDTSRNQVFLKITSVDTADTATYYCARSYDDYLYYALDYWGQGTSVTVSS
VL: DIVMTQSPATLSVTPGDRVSLSCRASQSISDYLHWYQQKSHESPRLLIKSVSQSISGIPSRFSGSGSGSDFTLSINSVEPEDVGVYYCQNGHSFPLTFGAGTKLELK

From US7083949
